Among the data in PMC6431256 (Biochemistry, 2018) are Kd values, retold here.

Non-standard residues stand in square brackets, D forms with d. No end group written: not given here. pT = C[C@@H](OP(=O)(O)O)[C@H](N)C(=O)O; pS = N[C@@H](COP(=O)(O)O)C(=O)O

One test concerns the target full-length Pin1 (human, UniProt Q13526 1-163). The test can be described thus: NMR titration.
Test [1] concerns the target Pin1 WW domain (Pin1WW, residues 1–41) (human, UniProt Q13526 1-41). The test can be described thus: NMR titration.

Sequence of full-length Pin1 (Q13526 whole entry, the tested form may be a part): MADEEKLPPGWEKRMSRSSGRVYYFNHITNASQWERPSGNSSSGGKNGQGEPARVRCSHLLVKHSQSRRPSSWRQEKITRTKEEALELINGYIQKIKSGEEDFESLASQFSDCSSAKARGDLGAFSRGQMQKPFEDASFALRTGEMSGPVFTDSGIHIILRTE
Sequence of Pin1 WW domain (Pin1WW, residues 1–41) (Q13526 1-41): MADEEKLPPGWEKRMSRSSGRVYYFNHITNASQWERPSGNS

In general, Kd refers to the concentration at which binding is half-saturated. A low value points to higher affinity. Consider KATGAA[pT]PKKSAKW [histone H1.4 phosphopeptide KATGAApTPKKSAKW], for which the Kd with full-length Pin1 was found to be 180 µM; in test [1], 111 µM.

As for KKAVK[pS]PAKAKAW [histone H1.1 phosphopeptide KKAVKpSPAKAKAW], the results for the Kd (with full-length Pin1; in test [1]) were 500 µM and 890 µM, respectively.
